Patent US20160201045A1, “Endo-xylanase and Coding Gene and Use Thereof” (SHANGHAI INSTITUTES FOR BIOLOGICAL SCIENCES CHINESE ACADEMY …, priority 2013, published 2016)

Key:
Assay type in all cases: biochemical
[1] = Detection on the optimum temperature
Protocol: (§1) In a 100 μl reaction system, birch xylan was added to a final concentration of 1% (w/w), and Na2HPO4/NaH2PO4 buffer (pH7.0) was added to a final concentration of 100 mM. A suitable amount of enzyme solution diluted by the abovementioned buffer was added to the reaction system for reaction at 50[…] for 10 minutes. 100 μl DNS were added to stop the reaction. For the control, 100 μl DNS were firstly added to the above reaction system before adding the enzyme solution. The reaction mixtures were subjected to a boiled water bath for 5 minutes to develop color. Absorbance value at 540 nm was detected by a microplate reader. After subtracting the absorbance value of the control from that of the sample, the enzymatic activity unit (U) was calculated based on the standard curve.
Enzymatic activity was detected according the above standard enzymatic activity detection steps at pH 7.0 and a temperature in the range of 25-80° C. The optimum temperature of Xyl7 was in the range of 50-55° C., with an activity at 50[…] slightly higher than that at 55[…]. Thus, the specific activity value of the enzyme at 50[…] was used as a reference value and its relative activity was defined as 100%. The relative activity of the enzyme at each temperature was a ratio between the specific activity value of the enzyme at each temperature and the reference value.

[2] = Residual activity under feed additive conditions (acidic pH, 37° C.); settings: pH 4-5, 37° C., 15-60 minutes
Protocol: as §1
As a feed additive, xylanase is required to retain its enzymatic activity in a pH environment of about 4 due to the acidic environment in the stomach of livestock, such as pig, and retain its enzymatic activity in a pH environment of about 6 due to the weak acidic environment in the digestive tract of chicken. Therefore, Xyl7 was tested for its residual enzymatic activity after treated in pH4 or pH5 at a 37° C. bath for 15, 30, 45 and 60 minutes. The residual enzymatic activity was a ratio between the specific activity of the enzyme obtained after various treatments and that of the un-treated enzyme.

[3] = Detection of the optimum pH
Protocol: as §1
Buffers having different pH values in the range of 3.5-10 in a gradient of 0.5 unit were prepared, wherein NaAc with a final concentration of 100 mM was used to prepare the buffers having a pH in the range of 3.5-6.0, Na2HPO4/NaH2PO4 with a final concentration of 100 mM was used to prepare the buffers having a pH in the range of 6.0-8.0, and Tris-HCl with a final concentration of 100 mM was used to prepare the buffers having a pH in the range of 8.0-10.0. The enzyme solution was added into each pH buffer system and the enzymatic activity was tested according to the above standard enzymatic activity detection steps. […]

[4] = Screening of mutant clones for improved thermal stability (96-well, heat treatment, DNS); settings: 52.5° C. water bath for two hours
Protocol: Transformants were picked up by sterile toothpick to a LB liquid culture containing antibiotic and IPTG (in a final concentration of 1 mM) contained within the wells of a 96-well plate and cultured overnight at 37° C. and 200 rpm. Thallus was collected by centrifugation. 100 ul buffers having the optimum reaction pH were added to re-suspend the thallus. Clone from each well was divided into a control group and a treatment group, with 50 ul for each well. The control group was stored at 4° C. The treatment group was treated in a water bath having a suitable temperature for 2 hours. After adding 2% xylan to each well, the mixture was allowed to react under 37° C. for 1 hour. Enzymatic activity was detected according to the DNS method. After treatment, the treatment group of the wild type clone retained an enzymatic activity which was about 10˜20% of its control group. […] The thermal stability of finally obtained mutants was tested according to the method described in Example 3. The overnight thallus was re-suspended and divided into two groups, which were the control and treatment groups, respectively. […] Then the enzymatic activity was detected. The residual enzymatic activity of the treatment group was calculated as a percentage of the enzymatic activity of the treatment group in relative to that of the control group. […]

[5] = TLC analysis on hydrolyzed products of birch xylan by Xyl7
Protocol: 1% (w/w) Birch xylan was treated by 15 U Xyl7 at pH7.0 and 50[…] for 10 min, 1 h, 4 h, and 12 h, respectively, to obtain the hydrolyzed products. […], each 5 μl, were subjected to TLC for identification. The standard samples were xylose, xylobiose, and xylotriose. The developing agent comprised ethyl acetate, acetic acid and water in a ratio of 2:1:1(V/V/V). The chromogenic agent was a solution of 1 mL aniline, 1 g diphenylamine and 5 mL 85% phosphoric acid dissolved in 50 mL acetone.

B1: Xyl7: endo-1,4-β-xylanase of 505 amino acids, SEQ ID NO:2, from termite gut metagenome, expressed in E. coli with His tag (protein)
chain: MKKLIALSFIAAFFAPLFAQGPTWTTSTIQAYNGYDYELWNQNNAGTVSMKLTGDNGSGASAVGGTFTATWSNTQNVLFRSGKKWGSSSNQNHTQIGNMSINFAATWSSTDNVKMLGVYGWAYFTSANVPTKQENGTNASFSNQIEYYIIQDRGSYNPASGGTNAKKYGSATIDGIAYDFYVCDRINQPMLTGNGNFKQFFSVPQSASAHRTSGTISVSQHFNKWHELGMKMDGPLYEVAMKVESYTGSGSSNGSATVTKNLLTIGGTTPTPSSNSGGTTSSSSRASSSSRASSSSNAAVQATTCKTPLITYPTSTVPSDPYTACFKYTDDKCYVCKVENEGEFEGNMNTCGSGWVWDGTQIDNNLRDGYWYQEVPCPAGSSSSRSSSSSVAVSSSSRSSSSSVAASSSSRSSSSSASVSSSSEETPIRVLHTIPSKFRVRSLNNGALQIESNADVVLYLYDTKGKMAQKIEAPTGSSIVKLSVPAGIYIVRNVQTKEKLRVMVR
modifications: His tag; Intestinal tract metagenome of termite
[1]; pH 7.0, 25-80° C. tested
  optimum temperature: 50-55 °C
[1]; pH 7.0, % of the highest activity (50)
  retained activity in the range of 30-60° C.: ≥ 50%
[2]
  residual enzymatic activity in acidic environment: retain a sufficiently high enzymatic activity
[3]; buffers pH 3.5-10, 50
  optimum pH: 7.0
[3]; relative to activity at pH7.0, 50
  relative activity in the pH range of from 5.5 to 10: ≥ 50%
[4]
  enzymatic activity of the treatment group as % of the control group: 10˜20%
[5]; 10 minutes, pH7.0, 50
  hydrolyzed product of xylan, action time relatively short: oligoxylan
[5]; 12 hours, pH7.0, 50
  hydrolyzed product of xylan, action time relatively long: xylo-oligosaccharide, mainly including xylobiose, xylotriose and xylotetraose
[5]; excess enzyme
  final hydrolyzed product if the enzyme was excessive: xylose
